Measured values as given in patent publication US20150307628.

Assays:
[1] = co-expression in HEK293F, protein A purification, non-reducing SDS-PAGE, band density (ImageJ); mean ± S.E.M.
[2] = target: T1, dummy-Fc heavy chain constant region with CH3B of mutant EW-RVT (S-S) (Q347R/S354C/D399V/F405T); experiment: as above
T1 chain: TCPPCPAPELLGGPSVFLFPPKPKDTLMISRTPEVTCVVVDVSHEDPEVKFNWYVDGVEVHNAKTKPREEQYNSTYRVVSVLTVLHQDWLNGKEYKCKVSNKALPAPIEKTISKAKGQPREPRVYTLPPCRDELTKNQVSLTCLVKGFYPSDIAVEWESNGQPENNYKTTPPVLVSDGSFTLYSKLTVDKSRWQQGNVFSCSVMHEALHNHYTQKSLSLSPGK

[3] = target: T2, dummy-Fc heavy chain constant region with CH3B of mutant EEW-RVT (Q347R/D399V/F405T); experiment: repeated expression and purification, SDS-PAGE band density (ImageJ)
T2 chain: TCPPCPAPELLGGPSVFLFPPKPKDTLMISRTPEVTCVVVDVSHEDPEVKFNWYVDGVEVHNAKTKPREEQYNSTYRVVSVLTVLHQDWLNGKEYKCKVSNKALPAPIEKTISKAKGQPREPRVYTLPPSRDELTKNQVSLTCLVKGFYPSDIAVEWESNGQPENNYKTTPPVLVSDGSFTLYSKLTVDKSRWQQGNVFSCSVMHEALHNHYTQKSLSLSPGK

[4] = target: T2, dummy-Fc heavy chain constant region …; experiment: co-expression in HEK293F, protein A purification, non-reducing SDS-PAGE, band density (ImageJ); mean ± S.E.M.
[5] = target: T3, dummy-Fc heavy chain constant region with CH3B of mutant SW-WVT (S-S) (Y349C/E357W/D399V/F405T); experiment: as above
T3 chain: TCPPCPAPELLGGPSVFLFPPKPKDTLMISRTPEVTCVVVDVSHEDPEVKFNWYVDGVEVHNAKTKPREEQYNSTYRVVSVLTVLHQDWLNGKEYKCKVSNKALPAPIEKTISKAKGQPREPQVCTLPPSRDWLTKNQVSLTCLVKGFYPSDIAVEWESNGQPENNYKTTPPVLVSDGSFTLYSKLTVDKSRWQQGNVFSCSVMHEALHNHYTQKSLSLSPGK

B1: hAY4a scFv-Fc heavy chain with CH3A of mutant EW-RVT (S-S) (Y349C/K360E/K409W) (protein)
chain: TCPPCPAPELLGGPSVFLFPPKPKDTLMISRTPEVTCVVVDVSHEDPEVKFNWYVDGVEVHNAKTKPREEQYNSTYRVVSVLTVLHQDWLNGKEYKCKVSNKALPAPIEKTISKAKGQPREPQVCTLPPSRDELTENQVSLTCLVKGFYPSDIAVEWESNGQPENNYKTTPPVLDSDGSFFLYSWLTVDKSRWQQGNVFSCSVMHEALHNHYTQKSLSLSPGK
- Heterodimer yields, AA Homodimer (CH3A:CH3A) (scFv-Fc)2 [1]: 0.6%
- Heterodimer yields, AB Heterodimer (CH3A:CH3B) (scFv-Fc)(Fc) [2]: 94.2%

B2: hAY4a scFv-Fc heavy chain with CH3A of mutant EEW-RVT (Q347E/K360E/K409W) (protein)
chain: TCPPCPAPELLGGPSVFLFPPKPKDTLMISRTPEVTCVVVDVSHEDPEVKFNWYVDGVEVHNAKTKPREEQYNSTYRVVSVLTVLHQDWLNGKEYKCKVSNKALPAPIEKTISKAKGQPREPEVYTLPPSRDELTENQVSLTCLVKGFYPSDIAVEWESNGQPENNYKTTPPVLDSDGSFFLYSWLTVDKSRWQQGNVFSCSVMHEALHNHYTQKSLSLSPGK
- yield of formation of the heterodimer [3]: about 90 to 95%
- Heterodimer yields, AB Heterodimer (CH3A:CH3B) (scFv-Fc)(Fc) [4]: 90.9%

B3: dummy-Fc heavy chain constant region with CH3B of mutant SW-WVT (E357W/D399V/F405T) (protein)
chain: TCPPCPAPELLGGPSVFLFPPKPKDTLMISRTPEVTCVVVDVSHEDPEVKFNWYVDGVEVHNAKTKPREEQYNSTYRVVSVLTVLHQDWLNGKEYKCKVSNKALPAPIEKTISKAKGQPREPQVYTLPPSRDWLTKNQVSLTCLVKGFYPSDIAVEWESNGQPENNYKTTPPVLVSDGSFTLYSKLTVDKSRWQQGNVFSCSVMHEALHNHYTQKSLSLSPGK
- Heterodimer yields, BB Homodimer (CH3B:CH3B) (Fc)2 [1]: 1.7%

B4: dummy-Fc heavy chain constant region with CH3B of mutant EW-RVT (Q347R/D399V/F405T) (protein)
chain: TCPPCPAPELLGGPSVFLFPPKPKDTLMISRTPEVTCVVVDVSHEDPEVKFNWYVDGVEVHNAKTKPREEQYNSTYRVVSVLTVLHQDWLNGKEYKCKVSNKALPAPIEKTISKAKGQPREPRVYTLPPSRDELTKNQVSLTCLVKGFYPSDIAVEWESNGQPENNYKTTPPVLVSDGSFTLYSKLTVDKSRWQQGNVFSCSVMHEALHNHYTQKSLSLSPGK
- Heterodimer yields, BB Homodimer (CH3B:CH3B) (Fc)2 [1]: 1.6%

B5: dummy-Fc heavy chain constant region with CH3B of mutant EEW-RVT (Q347R/D399V/F405T) (protein)
chain: TCPPCPAPELLGGPSVFLFPPKPKDTLMISRTPEVTCVVVDVSHEDPEVKFNWYVDGVEVHNAKTKPREEQYNSTYRVVSVLTVLHQDWLNGKEYKCKVSNKALPAPIEKTISKAKGQPREPRVYTLPPSRDELTKNQVSLTCLVKGFYPSDIAVEWESNGQPENNYKTTPPVLVSDGSFTLYSKLTVDKSRWQQGNVFSCSVMHEALHNHYTQKSLSLSPGK
- Heterodimer yields, BB Homodimer (CH3B:CH3B) (Fc)2 [1]: 6.3%

B6: hAY4a scFv-Fc heavy chain with CH3A of mutant SW-WVT (S-S) (Y349S/S354C/K409W) (protein)
chain: TCPPCPAPELLGGPSVFLFPPKPKDTLMISRTPEVTCVVVDVSHEDPEVKFNWYVDGVEVHNAKTKPREEQYNSTYRVVSVLTVLHQDWLNGKEYKCKVSNKALPAPIEKTISKAKGQPREPQVSTLPPCRDELTKNQVSLTCLVKGFYPSDIAVEWESNGQPENNYKTTPPVLDSDGSFFLYSWLTVDKSRWQQGNVFSCSVMHEALHNHYTQKSLSLSPGK
- Heterodimer yields, AB Heterodimer (CH3A:CH3B) (scFv-Fc)(Fc) [5]: 98.6%

B7: dummy-Fc heavy chain constant region with CH3B of mutant EW-RVT (S-S) (Q347R/S354C/D399V/F405T) (protein)
chain: TCPPCPAPELLGGPSVFLFPPKPKDTLMISRTPEVTCVVVDVSHEDPEVKFNWYVDGVEVHNAKTKPREEQYNSTYRVVSVLTVLHQDWLNGKEYKCKVSNKALPAPIEKTISKAKGQPREPRVYTLPPCRDELTKNQVSLTCLVKGFYPSDIAVEWESNGQPENNYKTTPPVLVSDGSFTLYSKLTVDKSRWQQGNVFSCSVMHEALHNHYTQKSLSLSPGK
- Heterodimer yields, BB Homodimer (CH3B:CH3B) (Fc)2 [1]: 2.2%

B8: dummy-Fc heavy chain constant region with CH3B of mutant SW-WVT (S-S) (Y349C/E357W/D399V/F405T) (protein)
chain: TCPPCPAPELLGGPSVFLFPPKPKDTLMISRTPEVTCVVVDVSHEDPEVKFNWYVDGVEVHNAKTKPREEQYNSTYRVVSVLTVLHQDWLNGKEYKCKVSNKALPAPIEKTISKAKGQPREPQVCTLPPSRDWLTKNQVSLTCLVKGFYPSDIAVEWESNGQPENNYKTTPPVLVSDGSFTLYSKLTVDKSRWQQGNVFSCSVMHEALHNHYTQKSLSLSPGK
- Heterodimer yields, BB Homodimer (CH3B:CH3B) (Fc)2 [1]: 0.8%
